For assay [1], the target named is T1, Nluc-IL23R fusion protein (human, UniProt Q5VWK5 22-629).
T1 construct: range 22-629; expressed with a secretion signal in HEK293 cells; used as crude membrane preparation; also called hIL-23R; human IL-23R; not shown: Nanoluc protein from the expression plasmid N1371 (Promega), N-terminal of IL-23R
T1 sequence (looked up): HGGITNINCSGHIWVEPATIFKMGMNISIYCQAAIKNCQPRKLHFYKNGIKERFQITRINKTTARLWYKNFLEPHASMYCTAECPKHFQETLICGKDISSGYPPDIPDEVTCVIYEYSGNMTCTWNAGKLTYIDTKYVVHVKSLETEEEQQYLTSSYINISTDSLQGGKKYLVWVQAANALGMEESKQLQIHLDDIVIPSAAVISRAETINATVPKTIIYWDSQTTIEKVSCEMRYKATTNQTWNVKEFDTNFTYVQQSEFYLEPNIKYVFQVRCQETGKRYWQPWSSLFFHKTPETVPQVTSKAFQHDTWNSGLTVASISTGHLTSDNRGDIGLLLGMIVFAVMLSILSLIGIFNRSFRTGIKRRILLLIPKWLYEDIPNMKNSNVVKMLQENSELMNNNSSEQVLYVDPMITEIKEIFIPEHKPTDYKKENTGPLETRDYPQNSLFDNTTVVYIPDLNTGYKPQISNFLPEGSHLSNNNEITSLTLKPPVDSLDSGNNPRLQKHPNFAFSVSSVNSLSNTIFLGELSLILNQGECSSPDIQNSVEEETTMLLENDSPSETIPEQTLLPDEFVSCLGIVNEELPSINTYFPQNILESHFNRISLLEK
Briefly: BRET competition vs TAMRA-labelled peptide, Nluc-IL23R membranes.

Assay [2] concerns the target T2, human IL-23R endogenously expressed on DB cells (human, UniProt Q5VWK5 24-629).
T2 sequence (looked up): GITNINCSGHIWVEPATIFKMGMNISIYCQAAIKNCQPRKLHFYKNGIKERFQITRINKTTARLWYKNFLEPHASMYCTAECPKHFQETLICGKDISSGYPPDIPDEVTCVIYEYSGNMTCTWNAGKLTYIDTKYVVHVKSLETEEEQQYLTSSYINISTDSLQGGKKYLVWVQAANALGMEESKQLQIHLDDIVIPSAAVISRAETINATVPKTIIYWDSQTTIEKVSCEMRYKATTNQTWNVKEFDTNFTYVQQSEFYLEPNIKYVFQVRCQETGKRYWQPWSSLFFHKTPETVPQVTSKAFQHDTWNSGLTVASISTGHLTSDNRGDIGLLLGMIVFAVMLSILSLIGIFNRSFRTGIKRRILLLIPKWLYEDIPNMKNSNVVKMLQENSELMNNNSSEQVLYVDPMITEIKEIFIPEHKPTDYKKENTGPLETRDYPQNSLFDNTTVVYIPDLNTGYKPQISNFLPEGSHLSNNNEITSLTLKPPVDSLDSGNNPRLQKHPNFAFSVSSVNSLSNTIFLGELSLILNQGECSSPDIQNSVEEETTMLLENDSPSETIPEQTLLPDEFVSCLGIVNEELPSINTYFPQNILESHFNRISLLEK
Briefly: cell-based or functional assay.

The target in assay [3] is T2, human IL-23R endogenously expressed on …. Briefly: cell-based or functional assay. The source holds these as a separate data set.
The target is the same in assay [4]. Briefly: cell-based or functional assay. This is another data set of the same source.
Assay [5] shares this target. Briefly: cell-based or functional assay. This is another data set of the same source.
Assay [6] shares this target. Briefly: cell-based or functional assay. The source holds these as a separate data set.
Assay [7] has as its target T1, Nluc-IL23R fusion protein. Briefly: BRET competition vs TAMRA-labelled peptide, Nluc-IL23R membranes. The source holds these as a separate data set.

The results in this text go back to patent EP4471049A1 (Zealand Pharma A/S, priority 2023, dated 2024).

Where two headings read alike, the source gives them in different places. *1 amine or outer side, *2 acyl side, *3 side chain or, on linkers, in order; H or OH if unused. Bridges are numbered along the chain shown (N, C = ends). [ ]: non-standard residue; d: D form. The star is where a group is joined. 4‑Aminomethyl‑phenylacetyl = 4-aminomethyl-phenylacetyl unit, its amine closes the lactam, O=C(Cc1ccc(CN[*:1])cc1)[*:2]; NH(4-(3-pyridyl)butyl) = c1cncc(CCCCN*)c1; NH(2-(3-pyridyl)ethyl) = c1cncc(CCN*)c1; 2Nal = N[C@@H](Cc1ccc2ccccc2c1)C(=O)O; AEF = NCCOc1ccc(C[C@H](N)C(=O)O)cc1; 3Pal = N[C@@H](Cc1cccnc1)C(=O)O; αMeL = CC(C)C[C@](C)(N)C(=O)O; Dab = NCC[C@H](N)C(=O)O

B1: Compound 7 (peptide)
peptide: [4‑Aminomethyl‑phenylacetyl]SEWQ[Dab][AEF][2Nal][αMeL]E[Dab]-{NH(2-(3-pyridyl)ethyl)}
modifications: lactam N-10, 3-6
SMILES: CC(C)C[C@]1(C)NC(=O)[C@H](Cc2ccc3ccccc3c2)NC(=O)[C@H](Cc2ccc(OCCN)cc2)NC(=O)[C@@H]2CCNC(=O)CC[C@H](NC(=O)[C@H](CO)NC(=O)Cc3ccc(cc3)CNC(=O)CC[C@@H](C(=O)N[C@@H](CCN)C(=O)NCCc3cccnc3)NC1=O)C(=O)N[C@@H](Cc1c[nH]c3ccccc13)C(=O)N[C@@H](CCC(N)=O)C(=O)N2
With B1, the % displacement (hIL-23R binding) in assay [1] came out at 102%. In assay [2], the “hIL-23 (pSTAT3) antagonist % inhibition” value is 98% and the “hIL-23 (pSTAT3) antagonist IC50” value turned out to be 0.13 nM. Further, the “IC50 (pSTAT3)” value in assay [3] stood at 0.13 nM.

B2: Compound 13 (peptide)
peptide: [4‑Aminomethyl‑phenylacetyl]SEWQ[Dab][AEF][2Nal][αMeL]E[Dab][dH]-NH2
modifications: lactam N-10, 3-6
SMILES: CC(C)C[C@]1(C)NC(=O)[C@H](Cc2ccc3ccccc3c2)NC(=O)[C@H](Cc2ccc(OCCN)cc2)NC(=O)[C@@H]2CCNC(=O)CC[C@H](NC(=O)[C@H](CO)NC(=O)Cc3ccc(cc3)CNC(=O)CC[C@@H](C(=O)N[C@@H](CCN)C(=O)N[C@H](Cc3c[nH]cn3)C(N)=O)NC1=O)C(=O)N[C@@H](Cc1c[nH]c3ccccc13)C(=O)N[C@@H](CCC(N)=O)C(=O)N2
As to B2, in assay [1], the % displacement (hIL-23R binding) worked out at 100%. In addition, in assay [2], the “hIL-23 (pSTAT3) antagonist % inhibition” value is 99% and the “hIL-23 (pSTAT3) antagonist IC50” value was 6.8 nM. Further, the “IC50 (pSTAT3)” value in assay [4] is 6.8 nM.

B3: Ref 122 (peptide)
peptide: [4‑Aminomethyl‑phenylacetyl]SEWQ[Dab][AEF][2Nal][αMeL]E[Dab][3Pal]-NH2
modifications: lactam N-10, 3-6
SMILES: CC(C)C[C@]1(C)NC(=O)[C@H](Cc2ccc3ccccc3c2)NC(=O)[C@H](Cc2ccc(OCCN)cc2)NC(=O)[C@@H]2CCNC(=O)CC[C@H](NC(=O)[C@H](CO)NC(=O)Cc3ccc(cc3)CNC(=O)CC[C@@H](C(=O)N[C@@H](CCN)C(=O)N[C@@H](Cc3cccnc3)C(N)=O)NC1=O)C(=O)N[C@@H](Cc1c[nH]c3ccccc13)C(=O)N[C@@H](CCC(N)=O)C(=O)N2
As to B3, the “hIL-23 (pSTAT3) antagonist % inhibition” value in assay [2] worked out at 99%. Also, in assay [2], the “hIL-23 (pSTAT3) antagonist IC50” value is 0.028 nM. Further, the “IC50 (pSTAT3)” value in assay [5], in assay [4], in assay [6] and in assay [3] was 0.028 nM throughout. Also, in assay [7], the % displacement (hIL-23R binding) came to 97%.

Turning to [4‑Aminomethyl‑phenylacetyl]SEWQ[Dab][AEF][2Nal][αMeL]E[Dab]-{NH(4-(3-pyridyl)butyl)} (lactam N-10, 3-6) [Compound 6], in assay [1], the % displacement (hIL-23R binding) came out at 103% and the IC50 amounted to 0.037 nM. Besides, in assay [2], the “hIL-23 (pSTAT3) antagonist % inhibition” value amounted to 99% and the “hIL-23 (pSTAT3) antagonist IC50” value came to 3.2 nM. Besides, the “IC50 (pSTAT3)” value in assay [3] amounted to 3.2 nM.

A word on the IC50: it is the concentration at which inhibition is half-maximal. A low value points to greater potency.
